Measured values from patent publication US9618524B2, “Method, composition, isolation and identification of a plaque particle and related biomarker” (Plaxgen Inc., priority 2012, dated 2017).

B1: Kallistatin (protein)
chain: QLHVEHDGESCSNSSHQQILETGEGSPSLKIAPANADFAFRFYYLIASETPGKNIFFSPLSISAAYAMLSLGACSHSRSQILEGLGFNLTELSESDVHRGFQHLLHTLNLPGHGLETRVGSALFLSHNLKFLAKFLNDTMAVYEAKLFHTNFYDTVGTIQLINDHVKKETRGKIVDLVSELKKDVLMVLVNYIYFKALWEKPFISSRTTPKDFYVDENTTVRVPMMLQDQEHHWYLHDRYLPCSVLRMDYKGDATVFFILPNQGKMREIEEVLTPEMLMRWNNLLRKRNFYKKLELHLPKFSISGSYVLDQILPRLGFTDLFSKWADLSGITKQQKLEASKSFHKATLDVDEAGTEAAAATSFAIKFFSAQTNRHILRFNRPFLVVIFSTSTQSVLFLGKVVDPTKP
B2: Leucine-rich alpha-2-glycoprotein (protein)
chain: VTLSPKDCQVFRSDHGSSISCQPPAEIPGYLPADTVHLAVEFFNLTHLPANLLQGASKLQELHLSSNGLESLSPEFLRPVPQLRVLDLTRNALTGLPPGLFQASATLDTLVLKENQLEVLEVSWLHGLKALGHLDLSGNRLRKLPPGLLANFTLLRTLDLGENQLETLPPDLLRGPLQLERLHLEGNKLQVLGKDLLLPQPDLRYLFLNGNKLARVAAGAFQGLRQLDMLDLSNNSLASVPEGLWASLGQPNWDMRDGFDISGNPWICDQNLSDLYRWLQAQKDKMFSQNDTRCAGPEAVKGQTLLAVAKSQ
B3: Isoform 2 of Apolipoprotein L1 (protein)
chain: EEAGARVQQNVPSGTDTGDPQSKPLGDWAAGTMDPESSIFIEDAIKYFKEKVSTQNLLLLLTDNEAWNGFVAAAELPRNEADELRKALDNLARQMIMKDKNWHDKGQQYRNWFLKEFPRLKSELEDNIRRLRALADGVQKVHKGTTIANVVSGSLSISSGILTLVGMGLAPFTEGGSLVLLEPGMELGITAALTGITSSTMDYGKKWWTQAQAHDLVIKSLDKLKEVREFLGENISNFLSLAGNTYQLTRGIGKDIRALRRARANLQSVPHASASRPRVTEPISAESGEQVERVNEPSILEMSRGVKLTDVAPVSFFLVLDVVYLVYESKHLHEGAKSETAEELKKVAQELEEKLNILNNNYKILQADQEL
B4: Carboxypeptidase N subunit 2 (protein)
chain: CPMGCDCFVQEVFCSDEELATVPLDIPPYTKNIIFVETSFTTLETRAFGSNPNLTKVVFLNTQLCQFRPDAFGGLPRLEDLEVTGSSFLNLSTNIFSNLTSLGKLTLNFNMLEALPEGLFQHLAALESLHLQGNQLQALPRRLFQPLTHLKTLNLAQNLLAQLPEELFHPLTSLQTLKLSNNALSGLPQGVFGKLGSLQELFLDSNNISELPPQVFSQLFCLERLWLQRNAITHLPLSIFASLGNLTFLSLQWNMLRVLPAGLFAHTPCLVGLSLTHNQLETVAEGTFAHLSNLRSLMLSYNAITHLPAGIFRDLEELVKLYLGSNNLTALHPALFQNLSKLELLSLSKNQLTTLPEGIFDTNYNLFNLALHGNPWQCDCHLAYLFNWLQQYTDRLLNIQTYCAGPAYLKGQVVPALNEKQLVCPVTRDHLGFQVTWPDESKAGGSWDLAVQERAARSQCTYSNPEGTVVLACDQAQCRWLNVQLSPQQGSLGLQYNASQEWDLRSSCGSLRLTVSIEARAAGP
B5: Serum amyloid A-4 protein (protein)
chain: ESWRSFFKEALQGVGDMGRAYWDIMISNHQNSNRYLYARGNYDAAQRGPGGVWAAKLISRSRVYLQGLIDCYLFGNSSTVLEDSKSNEKAEEWGRSGKDPDRFRPDGLPKKY
B6: Insulin-like growth factor-binding protein complex (protein)
chain: ADPGTPGEAEGPACPAACVCSYDDDADELSVFCSSRNLTRLPDGVPGGTQALWLDGNNLSSVPPAAFQNLSSLGFLNLQGGQLGSLEPQALLGLENLCHLHLERNQLRSLALGTFAHTPALASLGLSNNRLSRLEDGLFEGLGSLWDLNLGWNSLAVLPDAAFRGLGSLRELVLAGNRLAYLQPALFSGLAELRELDLSRNALRAIKANVFVQLPRLQKLYLDRNLIAAVAPGAFLGLKALRWLDLSHNRVAGLLEDTFPGLLGLRVLRLSHNAIASLRPRTFKDLHFLEELQLGHNRIRQLAERSFEGLGQLEVLTLDHNQLQEVKAGAFLGLTNVAVMNLSGNCLRNLPEQVFRGLGKLHSLHLEGSCLGRIRPHTFTGLSGLRRLFLKDNGLVGIEEQSLWGLAELLELDLTSNQLTHLPHRLFQGLGKLEYLLLSRNRLAELPADALGPLQRAFWLDVSHNRLEALPNSLLAPLGRLRYLSLRNNSLRTFTPQPPGLERLWLEGNPWDCGCPLKALRDFALQNPSAVPRFVQAICEGDDCQPPAYTYNNITCASPPEVVGLDLRDLSEAHFAPC
B7: Pigment epithelium-derived factor (protein)
chain: QNPASPPEEGSPDPDSTGALVEEEDPFFKVPVNKLAAAVSNFGYDLYRVRSSTSPTTNVLLSPLSVATALSALSLGAEQRTESIIHRALYYDLISSPDIHGTYKELLDTVTAPQKNLKSASRIVFEKKLRIKSSFVAPLEKSYGTRPRVLTGNPRLDLQEINNWVQAQMKGKLARSTKEIPDEISILLLGVAHFKGQWVTKFDSRKTSLEDFYLDEERTVRVPMMSDPKAVLRYGLDSDLSCKIAQLPLTGSMSIIFFLPLKVTQNLTLIEESLTSEFIHDIDRELKTVQAVLTVPKLKLSYEGEVTKSLQEMKLQSLFDSPDFSKITGKPIKLTQVEHRAGFEWNEDGAGTTPSPGLQPAHLTFPLDYHLNQPFIFVLRDTDTGALLFIGKILDPRGP
B8: Corticosteroid-binding globulin (protein)
chain: MDPNAAYVNMSNHHRGLASANVDFAFSLYKHLVALSPKKNIFISPVSISMALAMLSLGTCGHTRAQLLQGLGFNLTERSETEIHQGFQHLHQLFAKSDTSLEMTMGNALFLDGSLELLESFSADIKHYYESEVLAMNFQDWATASRQINSYVKNKTQGKIVDLFSGLDSPAILVLVNYIFFKGTWTQPFDLASTREENFYVDETTVVKVPMMLQSSTISYLHDSELPCQLVQMNYVGNGTVFFILPDKGKMNTVIAALSRDTINRWSAGLTSSQVDLYIPKVTISGVYDLGDVLEEMGIADLFTNQANFSRITQDAQLKSSKVVHKAVLQLNEEGVDTAGSTGVTLNLTSKPIILRFNQPFIIMIFDHFTWSSLFLARVMNPV

Legend:
Experiment in all cases: Mass spectroscopy proteomics, semi-quantitative binding affinity of serum proteins (plaqueproteome, Table 2)
Details in all cases: higher number = stronger affinity
[1] = target: T1, Abeta-42 plaque particles (Homo sapiens, UniProt P05067)
T1 construct: Abeta 1-42
Method in brief: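 AD patient serum or plasma (50% in PBS) was incubated with Abeta-42 aggregates (30 μg) for 1 h at 37 °C, then stained with Thioflavin S for 30 min. Labeled particles were FACS-sorted, trypsin/Lys-C digested overnight and analyzed by MS/MS. Sequest searched human UniProt; Scaffold/Protein Prophet validated the identifications.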

[2] = test system: High Density cholesterol (Chl Large) plaque particles; parameters: species or system human
Method in brief: (§1)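 Proteins bound to flow-sorted cholesterol plaque particles (large/high-density or small/low-density gates) were identified by LC-MS/MS after trypsin digestion. Particles were formed from 50% atherosclerotic serum or plasma with 30 μg cholesterol aggregates, 1 h, 37 °C. Sequest human database search; Scaffold validation.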

[3] = test system: Low density cholesterol (Chl small) plaque particles; parameters: species or system human
Method in brief: as §1

[4] = target: T2, alpha-synuclein plaque particles (Homo sapiens, UniProt P37840)
T2 construct: 140 amino acids polypeptide
Method in brief: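 AD-subject plasma or serum (800 μL of 50%) mixed with 30 μg preformed alpha-synuclein aggregates for 1 h at 37 °C; Thioflavin S-positive particles isolated by flow sorting. After reduction, acrylamide alkylation and overnight tryptic digestion, serum proteins identified by MS/MS with Sequest and Scaffold.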

[5] = test system: Tau plaque particles; parameters: species or system human
Method in brief: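 Serum or plasma proteins captured on Thioflavin S-labelled Tau plaque particles (Tau-74, Tau-275 oligomers preformed in PBS at 37° C for 2 h; 1 h co-incubation at 37° C) were isolated by FACS sorting, then tryptically digested and identified by MS/MS (Sequest, human UniProt, strict trypsin).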

| Molecule | Semi-quantitative analysis of proteins binding to different plaque particles: Abeta-42 [1] | Semi-quantitative analysis of proteins binding to different plaque particles: Chl Large [2] | Semi-quantitative analysis of proteins binding to different plaque particles: Chl small [3] | Semi-quantitative analysis of proteins binding to different plaque particles: Synuclein [4] | Semi-quantitative analysis of proteins binding to different plaque particles: Tau [5] |
| --- | --- | --- | --- | --- | --- |
| B1 | 0 | 1 | 0 | 0 | 1 |
| B2 | 2 | 2 | 3 | 2 | 1 |
| B3 | 0 | 1 | 1 | 0 | 2 |
| B4 | 0 | 0 | 1 | 2 | 1 |
| B5 | 2 | 1 | 1 | 1 | 4 |
| B6 | 0 | 1 | 1 | 0 | 1 |
| B7 | 5 | 4 | 3 | 4 | 4 |
| B8 | 0 | 2 | 3 | 1 | 1 |
